Consider 68 sequences from the domain aggregation screens of Martell et al. (2025).

A short description of this data set: soluble fraction after stress (log2 fold change); higher = more stays soluble; pooled small domains, quantitative proteomics. To be noted: stress: pH 4. A digest of the protocol:
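Values are on a log2 scale, where higher means more of the domain stayed soluble after pH 4 stress. They are fold changes in the soluble amount of each domain from pooled custom libraries, measured by high-throughput quantitative proteomics. The fold change is taken to reflect aggregation propensity.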
Turning to “HMARGRETILLVEDEPAVRGLVHATLRLHGYTVLEARHGIEALLTSTKFVGPIHLLLTDVVMPQMS”, the “soluble fraction (log2)” value turned out to be 0.265.
With “HMARHIHFEVHVQQAGRWSIHAQFGAGQREKAIEEAKKIEKTPGFDSVKVVKETYDSDLGNHQDTTIYRGP”, the “soluble fraction (log2)” value came to 0.0508.
The figure for “HMARKTIFHSLLGELEQRIGRLPAGTILPAEQALADEYGVSKPTLRRALAELAEHGLITKENGIGSVVI” is not below 0.43.
In the case of “HMARLAGVDLPREKRIEIGLTYIYGIGLARSQEILKKAGINPDIRVKDLTDEQEQAIRNAMDGYIVEGDL”, the “soluble fraction (log2)” value is -0.0746.
Regarding “HMARLQEVVVRVPVEDGQTLAAIYREAEVIERADEGTGVLLTVRIPAPLLGRLRRLEGVHVQP”, the “soluble fraction (log2)” value was -0.348.
The figure for “HMARRLELEDIPVDEVLFTASRNLVDAIEVMDPSRQAPMIQPWLKQALEWAVGALGFSKEDAVATLTSD” is -0.264; for “HMASAAHYEGVKTEGESDNDVITRVLTATGVTAEKDDIFVVKSLIADGKYSYTAYVYDGSVWAAMD” it is -0.541.
The figure for “HMASALDVALNDFAEMRKKMRKPLTDRALALTLSELEKLAPGNDEKKIAILNQSIQRGWQGVFPLK” is 0.0901; for “HMASDEVPGAGFKWREDVLLRVMEANGIDKSNRDDFVRHAVNFDDDDNNYLKKAEIEAAAAAWVESQSPA” it is -0.239; for “HMASDLPTVTIMGKTFYTYVAKKGESFFGIANRFGWDPELLVKTNRELETPLDKGALIYYPVPKKPK” it is -0.521.
The figure for “HMASIATLTVKALGGASDVVIRDKDGRIIWADRLPAGQSHRVFGHAPFNVAASHASRVQLSLLGKDVGRV” is -0.147; for “HMASISDRIRLLRAESHMTQEEFGRIFGISKPTVSFYEHGKSVPNDQIKTAIARYFGVSVDYLLGVTD” it is -0.467; for “HMASKTGTITATSLNVRSGAATTYSILGTLSNGKTVTIYEESNGWYKINYNGGYGWVSKTYVSTG” it is -0.105.
As to “HMASLASVAYETLRQALDNFQYVPGDRFSESEVGQQLGMSRTPVREALVRLQREGYISVLPKMGWVVNQ”, the “soluble fraction (log2)” value is -0.953.
The same measure for “HMASMHDGVAARLRAMVFERELAPGEFIDERRLAQQWQISRTPLREALKVLAAEGLVELVPRRGARVV”: -0.275; for “HMASPKEALWRSLAEEPDTWWDNRERKSQPGANPRSPDFKHKESGEALWIESRDTPTWVLETL”: -1.5; for “HMASQEESVATYIQDYYRNPKTGESMVSDDMVEEFYKTHPEWEDQADGSKEGMEAVLDNFNEFFEINYG”: -0.136.
The same measure for “HMASSRPLAEGDFVRLRAGGATGRIESIKGQKATVQMGGLKVHAPLRDLLPVAEPIKQVSTASNT”: 0.203.
The figure for “HMASVAKHIRRLRTERHMTQGDLAEKLFVTRQTVSAWETGKAQPDLETLERIAVVLGVEVTELIYGAP” is -0.537; for “HMASVVEQVQVSNDISLFRQQNSPYWQARFKVAGKWYTRTTKRTEQTQAAFRAAELRSEVQTKISQGIPLR” it is -0.00738; for “HMATESYYVLKADVPAKTLVTQEMVEEIKVSKGGAPVNSIKIDNIKEKGVYTSIPLLKGDVLSASNTG” it is -0.358.
With “HMATKVSSGATVRDVADLLGLSSAELIKKLMMMGEMATLTQTLTDESIKSIADEYDRKIEIVSAAE”, the “soluble fraction (log2)” value was -1.22.
The same measure for “HMATNVLEISTRNKNILIQDSLNLVESFYSKSDNQYWYKLVFKTKDDLNKFLQEVSEDENTITYKTSSI”: -0.194; for “HMATPEINNLGRLRNAINQSNVNWHQIIKRLQNEYPNNWRQILIAIDRHDLLFRYDVENYIKYG”: -0.855.
The figure for “HMATPIAGTKYTLNNTPVYGTEKGPSIGKRSGIYYTWDATVRNGRIRMTNSPARVGVPWQVSFWVEVNKL” is -0.195; for “HMATPRLAIVPQSAAGRRLDAVLAELFPEYSRSRLSAWIKTGDVMVDGAAPRGRDPVRGGEEITLTAVQ” it is 0.113; for “HMATPTEHQLQAQARAVVEKAERLLDRASADDREDIINLIEKITDALAAEDFTAVKAPLAELSDILFYLE” it is -0.27.
The figure for “HMATPTMEDYIEVIYSLVKTKGYARSADIAEKLEVYPSTVTKMLKKLDAEGYIVYEKYRGIALTDIGKKMG” is -0.189; for “HMATSNGEFVIPDGGLQFEELERSLLMQALKKSGGSQTGAARLLGLSRDTLRYRLEKFGIDAAAVRE” it is -0.149.
“HMATVTVPNLKGMTPSGAESALAELNLKGAVGDSVESNDVENGKVASQDQAAGSDAKEGDTITYHLSS”: the “soluble fraction (log2)” value is -0.103.
“HMATYETEVISGVNLRSAPNTSASVYRLLSKGEDIHVIQKVNDYWLKVQTKDGKIGYISASSKYTNYIA”: the “soluble fraction (log2)” value was -0.132.
The figure for “HMAVEETFTITWLDRDGTVLEVDENVLKGTMPSFDGHIPPHDGLEFKGWDPEVVPVEGDATYTATYKA” is -0.454; for “HMAVENTGLSKRELEILQMMARGMSNQEIGDALFISLSTVKTHVASIFSKLQAVRRTQAVGIAKSLKII” it is -0.367; for “HMAVFSKKQIFDTAFALFESKGLEAITARNLGKALSSSPAPIYAHYSSITELKNELISVAKDR” it is -0.692.
For the sequence “HMAVGDMISKLRTAANMSQEQFAELFGVTRQSVQKWENSFSVPELEKLIKISKYFDVSLDALVLRSDARVT”, the “soluble fraction (log2)” value was -1.32.
The same measure for “HMAVLFFVKRGERILGPTRLADLFQHAASGRLRANDLVGESPKGPWLPARQLDELEDAWASSRDATEAAAA”: -0.0753; for “HMAVNQEFKNTINRIKYEYSLNQSQIADRLGVKKTYLSDMINGRVPYNETMNKKVNDVFPLPP”: not below 0.43; for “HMAVPTHVEFPVVGLQRSGITSLEQAIATVPGVSKAVVNVSDNRIFVDYDPTRSKVSDLLEVVRGAGFTP”: -0.222.
The same measure for “HMAVQAESDIIKRAALLRNLGNTSMQLKNIDQAIDFYKQGIKLHPEDAELKYNLSQALRQKSQSNN”: 0.186.
Turning to “HMAVQEDAGLAREDLPPEVQGLLQEREAARAAKDWGKSDALRRQLQDLGYAIKDTAQGMEIKRT”, the “soluble fraction (log2)” value worked out at 0.101.
The figure for “HMAVRNTKQKQLVLSLLKNSGRPMTAGEIYRLAVQQYPNIAKSTVYRNLENLVSRGEVSQGMHQNGESFYS” is not below 0.43; for “HMAVSPEEQKKRIIELFRNRNEVSFKEIFDLPTKGHFVITLLAVLDLARQQIVIMEQLENEGIIKFTKGA” it is -0.232; for “HMAVSSHAVKQRIRSLIQAEDPAAPLSDEALRLALSALGVDVSRRVIAKYRAELNIPSSSQRKK” it is 0.213.
With “HMAVSVPDVMGLTYEEAYNKITAEGLLVNRLESYTGLVEKGRVISQLPVGGEPAAKGSTVNVNVSL”, the “soluble fraction (log2)” value was -0.139.
The figure for “HMAVTFPYTAYATDAVRLRERPSSSADVLAVIRKGDAVLVTGTDGNYAIVDYEGKRGYVVSSFIAT” is -0.159.
The same measure for “HMAVWRIKVNYIPGYGVNIWSSYKNGHFTGKRAMHGETYEVLETKKDQDGNTWYKLDDHQWIEGRYAINAK”: -0.88; for “HMAYMETIERVEALAPGTKFNLKALFGTDWTQSRGTKLTLGKTFYEMVESGYVKTAKVLGKDSSNIMQYER”: -0.0837; for “HMAYSEEERNLIRSRLKDVAAALFKEKGIRDTNIDEIYTPVGISKTFFYSFFPSKAVLAIAIMK”: -0.267.
The same measure for “HMAYVDWYENKQPTHEEAFKKLLGRIHPGAIVLLHSTSKTNGEILDELLTKWEEMGYRFGTLDELTGN”: -1.14; for “HMDAATDAIKAEVRALLEMANAQGIDTESIMLEAHEQTRNATEQDYYEAAKSALEAAIAGSNRDR”: -0.319.
With “HMDADGEPIKLDQIGISHLSFTVADVKSLGEELVAKGVKLAAPMEAFTSPEGRISSIFVYDPDGILLQFDD”, the “soluble fraction (log2)” value is -0.123.
The figure for “HMDADRLSPREREMLQFIARGQSNKEIARALELAESTVKIHVQNMLRKLNLSSRVQAAVFAVENGLG” is 0.302.
The same measure for “HMDAGLAEIIRSFEDNLGGFPPAAREDLLGWREIFTDDLILLAIKKAALAGVRKWSYVNGILKVWKNEGVR”: -1.09; for “HMDAHYMEMKGKTGTAFTMLRPAGKIDIEGQIFDAVAEAGFIEKGEAIRVVKYENAQLIVRK”: -0.32.
The figure for “HMDAIAYLGSRLKEIRLKSGLSLREIARQLDVSPSFISQIENGKSQPSVATLYAFAKLLNVPVDVLFQPS” is -0.455.
For “HMDAKNNPQVMAQIRAILTAKGLSEDEVKTRLKTKNIDVDKMTDQEIIAQRPAIEAIINEMEQEKKQKMG”, the “soluble fraction (log2)” value worked out at 0.142.
The figure for “HMDALPLIQLEKEIKDFISQGQKINAIKHYRNVMDRDFGTTISLKLAKYTVDALAQNIKVDLTKGYDQ” is -0.852; for “HMDALTLSIDAQGALYWNGQPVSRELAAQRFVEAAAQRPQPELHLRADQNVAYRHVAMTLADASRAGLTR” it is -0.632; for “HMDANAYTYKVSEDTDTRTGEKIFLVKVAEKLSRKEYIVVNNYMKSLGSYYSKFKHAFLFKENPTEKL” it is -0.246.
“HMDANLGEIFKVYEQEIGALTPFVREEMLDAIDHYPRDWILDAIRESAKSNARNWKYTLAILKRWKAEG”: the “soluble fraction (log2)” value was -0.507.
The same measure for “HMDAPIIRLLNSLVQRAVTTTASDIHIEPFEGETKVRMRIDGVIIDYVTLQRALHQPLIARIKIMSNLD”: -0.237; for “HMDAPKTGSLVVSKAVNYGSWSGFTFRLHGTSDKGNSVDVTATTGSDGKAYFKDIEIGTYTLEEVN”: -1.19; for “HMDAQEAAWARKMMETLPEKQKLSVALRIEEGLSFKEIGEIIGSSEGAARVNYFHGIRRLRELL”: -0.768.
The same measure for “HMDAQNLQDQLFGFLKANPTQAYPAQTLADGLRLDDANAFTKVVQALAALERGGKVKVNEEGAFQYDAEK”: -0.0669; for “HMDARSTHIAAIHVLKSKLQLQDSDYRALLLTLTGQTSSKDLSEHQRRAVRNHMQQLAERMGVVQ”: 0.0263.
The same measure for “HMDATFKVRVSVPDLNIRSGPGTNYAATGRFTGVGVFTITAVQSGQGSSSGWGKLKSGAGWIALDYAKR”: 0.341; for “HMDATIGGFKITDSAIYSGVKNNVNAGVRGTYIDKDGQIAFGDSNSYLKYYKDTDGKWKLEVSASSVKF”: -0.476; for “HMDAVDKDGNHMTFKKWSEQLQEAFHALELYDTTRAKQILSELVKFQVDSDITKSLKAIITNIDDMMA”: -1.5.
